B1: FIP200 LIR peptide (biotinylated, BLI) (peptide)
chain: PDSIDAHTFDFETIPHPNIEQTIH
modifications: also: biotin, position not given here
B2: PCM1 E1959T LIR peptide (BLI) (peptide)
chain: NISQKSDEEDFVKVTDLPLKLTIY
modifications: also: biotin, position not given here
B3: PCM1 FDII LIR peptide (BLI) (peptide)
chain: NISQKSDEEDFDIIEDLPLKLTIY
modifications: also: biotin, position not given here
B4: FYCO1 WT LIR peptide (peptide)
chain: TDYRPPDDAVFDIITDEELCQIQE
B5: FYCO1 WT LIR peptide (peptide)
chain: TDYRPPDDAVFDIITDEELCQIQE
modifications: 24-mer limits inferred: 10 residues on each side of the core FDII (1280-1283), as in the arrays; exact peptide is in Supplementary Table 2. N- or C-terminal biotin if used in BLI, cellulose-bound if in the array
B6: ATG13 LIR peptide (biotinylated, BLI) (peptide)
chain: GGSSGNTHDDFVMIDFKPAFSKDD
modifications: also: biotin, position not given here
B7: p62 LIR peptide (biotinylated, BLI) (peptide)
chain: SDNCSGGDDDWTHLSSKEVDPSTG
modifications: also: biotin, position not given here
B8: PCM1 K1957I LIR peptide (BLI) (peptide)
chain: NISQKSDEEDFVIVEDLPLKLTIY
modifications: also: biotin, position not given here
B9: ULK1 LIR peptide (biotinylated, BLI) (peptide)
chain: SKDSSCDTDDFVMVPAQFPGDLVA
modifications: also: biotin, position not given here
B10: PCM1 LIR peptide (biotinylated, BLI) (peptide)
chain: NISQKSDEEDFVKVEDLPLKLTIY
modifications: also: biotin, position not given here
B11: PCM1 V1958I LIR peptide (peptide)
chain: NISQKSDEEDFVKIEDLPLKLTIY
modifications: also: biotin, position not given here
B12: LC3C (recombinant, BLI) (natural protein)
chain: MPPPQKIPSVRPFKQRKSLAIRQEEVAGIRAKFPNKIPVVVERYPRETFLPPLDKTKFLVPQELTMTQFLSIIRSRMVLRATEAFYLLVNNKSLVSMSATMAEIYRDYKDEDGFVYMTYASQETFG
B13: PCM1 V1956D LIR peptide (peptide)
chain: NISQKSDEEDFDKVEDLPLKLTIY
modifications: also: biotin, position not given here

Read-outs that look alike come from different tables or passages of the source. Ends that are not written are not given here.

What all share (test): BLI
A general note: In BLI a coated tip is dipped into the sample, and binding shifts an interference pattern.

The target of test [1] is GABARAP R28K (recombinant, BLI) (human, UniProt O95166 1-117, R28K).
For test [2], the target named is GABARAP L55V (recombinant, BLI) (human, UniProt O95166 1-117, L55V).
The target of test [3] is GABARAP K24Q/Y25H/R28K (recombinant, BLI) (human, UniProt O95166 1-117, K24Q | Y25H | R28K).
For test [4], the target named is GABARAP L63I (recombinant, BLI) (human, UniProt O95166 1-117, L63I).
A further test addresses -L1 (recombinant, BLI) (human, UniProt Q9H0R8 1-117).
For test [5], the target named is GABARAP (recombinant, BLI) (human, UniProt O95166 1-117).
Test [6] addresses T1, GABARAP-L2 (recombinant, BLI) (human, UniProt P60520 1-117).
Test [7] deals with T2, LC3B (recombinant, BLI) (human, UniProt Q9GZQ8 1-120).
In test [8] the target is B12.
Test [9] concerns the target T3, LC3A (recombinant, BLI) (human, UniProt Q9H492 1-121).
The target of test [10] is LC3B Q26K/H27Y/E62Q (recombinant, BLI) (human, UniProt Q9GZQ8 1-120, Q26K | H27Y | E62Q).
Test [11] concerns the target LC3B E62Q (recombinant, BLI) (human, UniProt Q9GZQ8 1-120, E62Q).
The target in test [12] is GABARAP K24Q/Y25H/Q59E/F60L (recombinant, BLI) (human, UniProt O95166 1-117, K24Q | Y25H | Q59E | F60L).
Test [13] addresses T2, LC3B (recombinant, BLI). This is another data set of the same source.
In test [14] the target is B12.
Test [15] has as its target T1, GABARAP-L2 (recombinant, BLI). This is another data set of the same source.
The target in test [16] is LC3B Q26K/H27Y/K30R (recombinant, BLI) (human, UniProt Q9GZQ8 1-120, Q26K | H27Y | K30R).
In test [17] the target is GABARAP Y25H (recombinant, BLI) (human, UniProt O95166 1-117, Y25H).
For test [18], the target named is GABARAP F62K (recombinant, BLI) (human, UniProt O95166 1-117, F62K).
Test [19] has as its target GABARAP Q59E (recombinant, BLI) (human, UniProt O95166 1-117, Q59E).
For test [20], the target named is GABARAP K24Q (recombinant, BLI) (human, UniProt O95166 1-117, K24Q).
Test [21] addresses T3, LC3A (recombinant, BLI). This is another data set of the same source.
Test [22] concerns the target PCM1 LIR peptide mutated at P1962 (X7) (BLI) (UniProt Q15154, biotin (position not given)).

In paper PMC6499816 (2019) one finds Kd data, which are given here for 13 molecules.

Sequence of -L1 (recombinant, BLI) (Q9H0R8 whole entry): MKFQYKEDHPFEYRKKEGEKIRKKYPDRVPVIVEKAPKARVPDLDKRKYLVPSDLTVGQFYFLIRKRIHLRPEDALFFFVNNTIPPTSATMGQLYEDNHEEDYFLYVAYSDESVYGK
T1 sequence (P60520 whole entry): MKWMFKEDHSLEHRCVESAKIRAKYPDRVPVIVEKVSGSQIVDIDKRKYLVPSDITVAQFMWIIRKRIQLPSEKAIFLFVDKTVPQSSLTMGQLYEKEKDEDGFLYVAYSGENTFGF

Regarding B1, the Kd worked out at 12.5 µM in test [1], 8.5 µM in test [2], 70.3 µM in test [3] and 3.8 µM in test [4].

Take B2: the Kd was 2.9 µM with -L1 (recombinant, BLI); 3.1 µM in [5]; 19 µM in test [6].

Regarding B3, the Kd was 0.91 µM with -L1 (recombinant, BLI); 21.8 µM with LC3B (recombinant, BLI) [7]; 2.4 µM with LC3C (recombinant, BLI) [8]; 1.4 µM in test [5]; 17 µM in test [6]; 4.6 µM with LC3A (recombinant, BLI) [9].

Consider B4, for which the Kd in the test with -L1 (recombinant, BLI) came to 0.9 µM.

B5: the Kd in the test with LC3B (recombinant, BLI) [7] was 1.1 µM; with LC3C (recombinant, BLI) [8], 3 µM; in [5], 1.7 µM; in test [6], 17.4 µM; with LC3A (recombinant, BLI) [9] it was 0.78 µM.

For the molecule B6, the Kd in [10] was found to be 3.1 µM; in test [11], 4.5 µM; in test [12], 3.3 µM; with LC3B (recombinant, BLI) [13] it was 9.6 µM; in the test with LC3C (recombinant, BLI) [14], 0.48 µM; in test [15] it was 3.1 µM.

Regarding B7, the equilibrium dissociation constant (Kd) with LC3C (recombinant, BLI) [14] is 2.7 µM.

Take B8: the Kd in the test with -L1 (recombinant, BLI) is 0.13 µM; with LC3C (recombinant, BLI) [8] it was 0.38 µM; in test [5], 0.17 µM; in [6], 1.19 µM; with LC3A (recombinant, BLI) [9], 3.9 µM.

With B9, the Kd in test [10] was determined as 5.6 µM; in test [16] it was 2.9 µM; in test [1], 0.39 µM; in test [17], 0.26 µM; in test [18] it was 0.15 µM; in test [12], 5.6 µM. Further, the Kd in [19] stood at 0.36 µM; in [2] it was 0.13 µM; in test [3], 3.2 µM; in test [20] it was 0.42 µM; in the test with LC3C (recombinant, BLI) [14], 2.5 µM; in [15], 0.53 µM. The Kd with LC3A (recombinant, BLI) [21] amounted to 5.9 µM.

As to B10, the Kd in [11] amounted to 160 µM; in test [1] it was 4.2 µM; in test [18], 3.8 µM; in test [4] it was 2 µM.

With B11, the Kd with LC3C (recombinant, BLI) [8] came out at 6.9 µM; in [5], 1.5 µM; in [6] it was 7.6 µM.

B12 came in with a Kd in test [22] of 10.8 µM.

For the molecule B13, the Kd in [5] was 7.7 µM.

What is called Kd is the free concentration of one partner at which half of the binding sites on the other are occupied at equilibrium, for simple one-to-one binding.
